Publication PMC9411544, “Catalytic innovation underlies independent recruitment of polyketide synthases in cocaine and hyoscyamine biosynthesis” (Nature Communications, 2022)

System: CC(C)(COP(=O)(O)OP(=O)(O)OC[C@H]1O[C@@H](n2cnc3c(N)ncnc32)[C@H](O)[C@@H]1OP(=O)(O)O)[C@@H](O)C(=O)NCCC(=O)NCCSC(=O)CC(=O)O
Assay: purified protein
Conditions: sole substrate, 100 mM potassium phosphate, pH 8.0, 30 °C, 20-1000 μM malonyl-CoA

| Substance | Km (1 ng/μL enzyme, 5 min) [µM] | kcat (1 ng/μL enzyme, 5 min) [s⁻¹] | Km (2 ng/μL enzyme, 8 min) [µM] | kcat (2 ng/μL enzyme, 8 min) [s⁻¹] |
| --- | --- | --- | --- | --- |
| AaPYKS1 (Anisodus acutangulus) | 70.38 | 2.24 | – | – |
| EnPKS1 (Erythroxylum novogranatense) | 112.90 | 1.89 | – | – |
| EnPKS2 (Erythroxylum novogranatense) | – | – | 50.54 | 0.45 |
